Measured values published in PMC6327041, “Histone H3 binding to the PHD1 domain of histone demethylase KDM5A enables active site remodeling” (Nature Communications, 2019).

Biological target: KDM5A PHD1 domain, S287-K347 (UniProt P29375)
Test: competition fluorescence polarization
Settings: reference: unmodified H3 10mer peptide

Sequence of KDM5A PHD1 domain, S287-K347 (P29375 whole entry, looked up, the tested form may be a part): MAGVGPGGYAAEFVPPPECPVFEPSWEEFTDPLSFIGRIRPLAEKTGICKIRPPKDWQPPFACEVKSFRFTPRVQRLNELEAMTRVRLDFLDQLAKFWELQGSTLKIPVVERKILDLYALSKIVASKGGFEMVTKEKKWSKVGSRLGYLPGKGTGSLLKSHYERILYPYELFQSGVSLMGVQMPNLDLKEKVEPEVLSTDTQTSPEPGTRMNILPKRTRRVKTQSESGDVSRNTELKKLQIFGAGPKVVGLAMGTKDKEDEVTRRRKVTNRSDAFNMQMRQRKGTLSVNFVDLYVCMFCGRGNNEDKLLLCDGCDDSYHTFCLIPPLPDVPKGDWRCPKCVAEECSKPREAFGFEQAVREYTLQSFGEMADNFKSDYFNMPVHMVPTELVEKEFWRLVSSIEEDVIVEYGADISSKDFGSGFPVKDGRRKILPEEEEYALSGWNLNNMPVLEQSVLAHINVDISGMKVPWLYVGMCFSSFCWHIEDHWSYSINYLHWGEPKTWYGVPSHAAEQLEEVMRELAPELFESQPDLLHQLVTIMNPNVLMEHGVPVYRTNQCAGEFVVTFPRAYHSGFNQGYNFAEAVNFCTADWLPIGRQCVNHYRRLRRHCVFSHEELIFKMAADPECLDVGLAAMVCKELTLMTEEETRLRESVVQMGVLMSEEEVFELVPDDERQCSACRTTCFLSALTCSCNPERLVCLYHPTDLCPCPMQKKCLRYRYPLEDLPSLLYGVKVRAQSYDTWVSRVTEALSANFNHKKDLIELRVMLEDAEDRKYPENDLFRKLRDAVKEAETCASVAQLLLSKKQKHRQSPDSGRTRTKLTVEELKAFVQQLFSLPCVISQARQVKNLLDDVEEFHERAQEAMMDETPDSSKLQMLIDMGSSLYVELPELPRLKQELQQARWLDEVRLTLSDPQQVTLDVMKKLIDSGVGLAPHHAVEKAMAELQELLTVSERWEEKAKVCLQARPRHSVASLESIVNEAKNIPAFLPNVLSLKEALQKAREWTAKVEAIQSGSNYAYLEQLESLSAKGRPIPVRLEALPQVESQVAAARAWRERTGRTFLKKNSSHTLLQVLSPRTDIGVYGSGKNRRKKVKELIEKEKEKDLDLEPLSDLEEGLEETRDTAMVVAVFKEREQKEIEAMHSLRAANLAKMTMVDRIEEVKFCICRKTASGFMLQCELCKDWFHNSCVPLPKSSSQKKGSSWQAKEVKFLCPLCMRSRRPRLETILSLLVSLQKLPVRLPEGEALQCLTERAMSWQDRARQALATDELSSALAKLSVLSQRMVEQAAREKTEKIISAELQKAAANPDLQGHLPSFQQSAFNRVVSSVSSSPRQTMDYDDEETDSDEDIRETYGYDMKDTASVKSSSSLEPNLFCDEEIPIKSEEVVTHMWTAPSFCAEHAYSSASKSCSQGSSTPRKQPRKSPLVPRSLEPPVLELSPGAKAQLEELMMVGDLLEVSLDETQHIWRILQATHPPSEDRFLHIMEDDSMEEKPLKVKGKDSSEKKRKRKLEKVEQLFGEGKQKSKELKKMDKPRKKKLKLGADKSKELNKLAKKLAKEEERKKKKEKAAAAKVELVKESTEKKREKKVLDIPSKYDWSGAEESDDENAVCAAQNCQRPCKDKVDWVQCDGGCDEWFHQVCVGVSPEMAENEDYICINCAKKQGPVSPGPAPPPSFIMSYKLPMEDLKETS

binding against the reference (sites T3) | binding against the reference (sites T6) | Substance
weaker |  | histone H3 (N-terminal tail peptide) N-terminal tail 10mer, 1-10 (from UniProt P68431) H3T3ph 10mer peptide
 | weaker | histone H3 (N-terminal tail peptide) N-terminal tail 10mer, 1-10 (from UniProt P68431) H3T6ph 10mer peptide
